Reference: US20260008815A1, “CYCLIC PEPTIDE OR SALT THEREOF, AND USES THEREOF” (FUJIFILM Corporation, priority 2023, published 2026)
Numbered stars: 1 amine (or outer) side, 2 acyl side, 3 side chain; on linkers, the order of the positions; unused ones are H or OH. Bridge positions count the residues as written; N and C are the ends. Ends that are not written are not given here. acetyl = acetyl (haloacetyl before ring closure) on the side-chain amine, O=C(C[*:1])[*:2]; COCH2 = acetyl group that carries the bridge

target: T1, Recombinant Human FGFR2 alpha (IIIc) Fc Chimera Protein (Homo sapiens, UniProt P21802); experiment: ELISA binding affinity of enzymatically synthesized peptide to FGFR; conditions: ELISA luminescence signal at 10 nmol/L peptide, SEQ ID NO: 47 at 10 nmol/L standardized to 1; enzyme synthesis product
T1 construct: Fc (chimera); purchased R&D systems 712-FR-050
In short: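 FGFR2 alpha (IIIc) Fc chimera (5 ng/well) was immobilized, and Myc-tagged peptide was bound 3 h at room temperature, then detected with anti-Myc antibody (2 h) and chemiluminescent substrate. Signal was corrected against FGFR-free wells. Score A–D was the luminescence at 10 nmol/L peptide, normalized to cyclic peptide SEQ ID NO: 47.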

T1 sequence (P21802 with tags, fused parts or gaps limits assumed): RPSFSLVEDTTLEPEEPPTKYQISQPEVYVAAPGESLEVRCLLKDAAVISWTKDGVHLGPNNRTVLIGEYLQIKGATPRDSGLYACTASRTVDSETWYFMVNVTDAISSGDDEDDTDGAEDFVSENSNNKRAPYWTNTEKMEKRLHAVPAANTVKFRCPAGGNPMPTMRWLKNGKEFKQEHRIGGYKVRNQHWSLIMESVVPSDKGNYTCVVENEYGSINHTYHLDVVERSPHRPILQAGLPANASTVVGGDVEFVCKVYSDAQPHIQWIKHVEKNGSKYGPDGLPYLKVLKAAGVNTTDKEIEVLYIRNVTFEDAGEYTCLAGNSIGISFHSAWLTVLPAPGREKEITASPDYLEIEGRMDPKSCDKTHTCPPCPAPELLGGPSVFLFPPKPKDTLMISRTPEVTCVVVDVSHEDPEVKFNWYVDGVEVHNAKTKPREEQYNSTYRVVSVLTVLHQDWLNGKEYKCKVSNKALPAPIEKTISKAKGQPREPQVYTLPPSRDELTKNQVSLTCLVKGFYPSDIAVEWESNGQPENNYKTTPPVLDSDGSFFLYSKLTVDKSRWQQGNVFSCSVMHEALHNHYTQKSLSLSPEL

Row | Evaluation result of binding affinity to FGFR | Substance
1 | A (0.7 or more) | 61 (KCPQNFINPAQWRYFQHYK(COCH2)N; thioether 2-19 (inferred)) [compound 61]
2 | A (0.7 or more) | 159 (YCNENYLDPEQYQYFIYFK(COCH2)Y; thioether 2-19 (inferred)) [compound 159]
3 | C (0.1 or more and less than 0.5) | 338 (YCEENKLDPEQYQYFIYFK(COCH2)Y; thioether 2-19 (inferred)) [compound 338]
4 | C (0.1 or more and less than 0.5) | 417 (LCQIYLYLTALQQGFEDFYPK(COCH2)N; thioether 2-21 via acetyl) [compound 417]
5 | C (0.1 or more and less than 0.5) | 124 (DCRDLQLFYIYQYLDALK(COCH2)K; thioether 2-18 (inferred)) [compound 124]
6 | C (0.1 or more and less than 0.5) | 326 (YCEENALDPEQYQYFIYFK(COCH2)Y; thioether 2-19 (inferred)) [compound 326]
7 | B (0.5 or more and less than 0.7) | 171 (YCEFNYLDPEQYQYFIYFK(COCH2)Y; thioether 2-19 (inferred)) [compound 171]
8 | A (0.7 or more) | 138 (LCEENYLDPEQYQYFIYFK(COCH2)Y; thioether 2-19 (inferred)) [compound 138]
9 | A (0.7 or more) | 77 (YCPQNFINPVQWRYFQHYK(COCH2)N; thioether 2-19 (inferred)) [compound 77]
10 | A (0.7 or more) | 154 (YCIENYLDPEQYQYFIYFK(COCH2)Y; thioether 2-19 (inferred)) [compound 154]
11 | C (0.1 or more and less than 0.5) | 91 (QCPQNFINPVQWRYFQHVK(COCH2)N; thioether 2-19 (inferred)) [compound 91]
12 | C (0.1 or more and less than 0.5) | 100 (QCPQHFINPVQWRYFQHYK(COCH2)N; thioether 2-19 (inferred)) [compound 100]
13 | A (0.7 or more) | 298 (YCEENYLDPEQYQYFINFK(COCH2)Y; thioether 2-19) [compound 298]
14 | A (0.7 or more) | 306 (YCEENYLDPEQYQYFIYYK(COCH2)Y; thioether 2-19 (inferred)) [compound 306]
15 | A (0.7 or more) | 406 (PCEQQNFHSVIQWHFFAQYK(COCH2)N; thioether 2-20 (inferred)) [compound 406]
16 | C (0.1 or more and less than 0.5) | 387 (RCHHNFHHARQHRFFHHYK(COCH2)R; thioether 2-19 (inferred)) [compound 387]
17 | C (0.1 or more and less than 0.5) | 374 (QCLQDLYRYLYLLK(COCH2)A; thioether 2-14) [compound 374]
18 | A (0.7 or more) | 39 (QCENWLSQDQWKYFWQYK(COCH2)I; thioether 2-18 (inferred)) [compound 39]
19 | A (0.7 or more) | 47 (KCPQNFINPVQWRYFQHYKN; not fully specified; Description of Artificial Sequence: Cyclic peptide) [compound 47]

Row | Evaluation result of binding affinity to FGFR | Substance
20 | A (0.7 or more) | 194 (YCEENHLDPEQYQYFIYFK(COCH2)Y; thioether 2-19 (inferred)) [compound 194]
21 | A (0.7 or more) | 167 (YCEPNYLDPEQYQYFIYFK(COCH2)Y; thioether 2-19 (inferred)) [compound 167]
22 | C (0.1 or more and less than 0.5) | 56 (KCPQAFINPVQWRYFQHYK(COCH2)N; thioether 2-19 (inferred)) [compound 56]
23 | A (0.7 or more) | 75 (VCPQNFINPVQWRYFQHYK(COCH2)N; thioether 2-19 (inferred)) [compound 75]
24 | A (0.7 or more) | 74 (ICPQNFINPVQWRYFQHYK(COCH2)N; thioether 2-19 (inferred)) [compound 74]
25 | C (0.1 or more and less than 0.5) | 399 (QK(COCH2)PQNFINPVQWRYFQHYCN; thioether 2-19 (inferred)) [compound 399]
26 | C (0.1 or more and less than 0.5) | 426 (PCDPLNLQQWYTAVYQLWHK(COCH2)R; thioether 2-20 via acetyl) [compound 426]
27 | A (0.7 or more) | 297 (YCEENYLDPEQYQYFIWFK(COCH2)Y; thioether 2-19) [compound 297]
28 | C (0.1 or more and less than 0.5) | 325 (YCEEAYLDPEQYQYFIYFK(COCH2)Y; thioether 2-19 (inferred)) [compound 325]
29 | C (0.1 or more and less than 0.5) | 135 (QCTYLAQYLVERYHLTK(COCH2)T; thioether 2-17 (inferred)) [compound 135]
30 | D (less than 0.1) | 34 (CRALLRGAPFHLAEC; disulfide 1-15) [compound 34]
31 | A (0.7 or more) | 45 (TCPQNFRDELQFTYFTQYKY; Description of Artificial Sequence: Cyclic peptide) [compound 45]
32 | A (0.7 or more) | 158 (YCWENYLDPEQYQYFIYFK(COCH2)Y; thioether 2-19 (inferred)) [compound 158]
33 | C (0.1 or more and less than 0.5) | 210 (YCEENYLVPEQYQYFIYFK(COCH2)Y; thioether 2-19 (inferred)) [compound 210]
34 | C (0.1 or more and less than 0.5) | 419 (DCHTREDWQIHHLYQLLYQLK(COCH2)Y; thioether 2-21 via acetyl) [compound 419]
35 | A (0.7 or more) | 218 (YCEENYLEPEQYQYFIYFK(COCH2)Y; thioether 2-19 (inferred)) [compound 218]
36 | C (0.1 or more and less than 0.5) | 94 (QCPQNFINPVQWRYFQHSK(COCH2)N; thioether 2-19 (inferred)) [compound 94]
37 | A (0.7 or more) | 63 (KCPQNFINPVQWAYFQHYK(COCH2)N; thioether 2-19 (inferred)) [compound 63]
38 | A (0.7 or more) | 313 (YCEENYLDPEQYQYFIYFK(COCH2)W; thioether 2-19 (inferred)) [compound 313]

Row | Evaluation result of binding affinity to FGFR | Substance
39 | A (0.7 or more) | 336 (YCKENYLDPEQYQYFIYFK(COCH2)Y; thioether 2-19 (inferred)) [compound 336]
40 | A (0.7 or more) | 214 (YCEENYLNPEQYQYFIYFK(COCH2)Y; thioether 2-19 (inferred)) [compound 214]
41 | A (0.7 or more) | 359 (YCEENYLDPEQYQYFIMFK(COCH2)Y; thioether 2-19) [compound 359]
42 | C (0.1 or more and less than 0.5) | 96 (QCPQYFINPVQWRYFQHYK(COCH2)N; thioether 2-19) [compound 96]
43 | A (0.7 or more) | 296 (YCEENYLDPEQYQYFIFFK(COCH2)Y; thioether 2-19) [compound 296]
44 | A (0.7 or more) | 78 (WCPQNFINPVQWRYFQHYK(COCH2)N; thioether 2-19 (inferred)) [compound 78]
45 | A (0.7 or more) | 50 (ACGQNFYHPVQFHYFIAYKQ; Description of Artificial Sequence: Cyclic peptide) [compound 50]
46 | C (0.1 or more and less than 0.5) | 373 (QCYNYQYIYQYIYK(COCH2)I; thioether 2-14) [compound 373]
47 | B (0.5 or more and less than 0.7) | 57 (KCPQNAINPVQWRYFQHYK(COCH2)N; thioether 2-19 (inferred)) [compound 57]
48 | A (0.7 or more) | 87 (QCPQNFINPVHWRYFQHYK(COCH2)N; thioether 2-19 (inferred)) [compound 87]
49 | C (0.1 or more and less than 0.5) | 252 (YCEENYLDPEQLQYFIYFK(COCH2)Y; thioether 2-19 (inferred)) [compound 252]
50 | A (0.7 or more) | 409 (LCNNWENYFDWLQWSYYIAYK(COCH2)E; thioether 2-21 (inferred)) [compound 409]
51 | A (0.7 or more) | 320 (YCEENYLDPEQYQYFIYFK(COCH2)R; thioether 2-19 (inferred)) [compound 320]
52 | A (0.7 or more) | 121 (DCYWDDQQYSFLQLYK(COCH2)R; thioether 2-16 (inferred)) [compound 121]
53 | C (0.1 or more and less than 0.5) | 384 (QCQLYYLYQYTIAIK(COCH2)T; thioether 2-15 (inferred)) [compound 384]
54 | D (less than 0.1) | 35 (YRSRKYSSWYVALKR; also: cyclic peptide, ring not given here) [compound 35]
55 | A (0.7 or more) | 140 (VCEENYLDPEQYQYFIYFKY; Description of Artificial Sequence: Cyclic peptide) [compound 140]
56 | C (0.1 or more and less than 0.5) | 414 (YCNYEWDGARRQIAYYRIFLKL; Description of Artificial Sequence: Cyclic peptide) [compound 414]
57 | C (0.1 or more and less than 0.5) | 432 (CENYLDPEQYQYFHYFK(COCH2)Y; thioether 1-17 via acetyl) [compound 432]
